Results as given in paper PMC10247153, “Chromatin Sensing by the Auxiliary Domains of KDM5C Regulates Its Demethylase Activity and Is Disrupted by X-linked Intellectual Disability Mutations” (Journal of molecular biology, 2022).
Where a chain is given by its changes, count along the chain named. Each block holds one binder with its values, some of them ahead of it. No end group written: not given here. Me3 = trimethyl; Me2 = dimethyl

Tests used:
Conditions in all cases: both partners purified
[1] = biological target: T1, PHD1 (KDM5C residues 318–378) (human, UniProt P41229-1 318-378); experiment: NMR titration; 2D 1H-15N HSQC of 200 μM 15N-PHD1 with increasing peptide up to 1:5 PHD1:peptide; 50 mM HEPES pH 7.5, 50 mM KCl, 5 mM BME, 50 μM ZnCl2, 5% D2O, 298 K; Kd from chemical shift change of one residue (I361 or D343), quadratic binding equation
T1 construct: KDM5C, human, PHD1 domain, residues 318-378; 15N-labelled (or 15N,13C) for NMR; also called PHD1 domain of KDM5C; source: E. coli BL21(DE3), M9 minimal medium, purified (Ni-NTA, MonoQ flow-through); not shown: 6xHis, N-terminal, cleaved; SUMO (Smt3), N-terminal, cleaved
T1 sequence (looked up): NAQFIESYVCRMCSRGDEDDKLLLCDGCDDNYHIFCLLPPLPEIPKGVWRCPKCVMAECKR

Avitag-PHD1 = biological target: T2, Avitag-PHD1 (human, UniProt P41229-1 318-378, biotin on the Avitag (BirA co-expression)); experiment: BLI; biotinylated Avitag-PHD1 (100 nM) loaded on streptavidin biosensors; 100 μM peptide; 50 mM HEPES pH 8, 50 mM KCl, 50 μM ZnCl2, 5 mM BME, 0.05% Tween-20; 25 °C; two phase exponential fit
T2 construct: KDM5C, human, PHD1 domain, residues 318-378; 6xHis-SUMO-Avitag-(GS)2-PHD1 before cleavage by SenP1; also called biotinylated Avitag-PHD1; Avitag-(GS)2-PHD1; source: E. coli BL21(DE3), co-expressed with BirA, purified (Ni-NTA, MonoQ flow-through); not shown: 6xHis, N-terminal, cleaved; SUMO (Smt3), N-terminal, cleaved; Avitag-(GS)2, N-terminal, kept
T2 sequence (looked up): T1 sequence (looked up)

PHD1 D343A mutant = biological target: T3, PHD1 D343A mutant (human, UniProt P41229-1 318-378, D343A); experiment: NMR titration; 2D 1H-15N HSQC of 200 μM 15N-PHD1 with increasing peptide up to 1:5 PHD1:peptide; 50 mM HEPES pH 7.5, 50 mM KCl, 5 mM BME, 50 μM ZnCl2, 5% D2O, 298 K; Kd from chemical shift change of one residue (I361 or D343), quadratic binding equation
T3 construct: KDM5C, human, PHD1 domain, residues 318-378 (limits as told for wild-type PHD1)
T3 sequence (looked up): T1 sequence (looked up) with D26A

Binder: Ac-QSVQPSKFNSYGRRAKRLQP-NH2 (source: synthetic peptide (GenScript)) [KDM5C (199–218) peptide]
- fold lower affinity than the H3 tail [1]: ~3 fold

B2: H3 (1–18) tail peptide (peptide, UniProt P68431 2-19, looked up)
peptide: ARTKQTARKSTGGKAPRK
notes: histone H3 N-terminal tail, residues 1-18; also called H3 (1–18) peptide; H3K4me0 (1–18); source: synthetic peptide (GenScript)
- Kd [1]: 130 µM
- fold decrease in affinity against wild-type PHD1 (PHD1 D343A mutant): ≥ 10 fold

B3: H3K4me3 (1–18) peptide (peptide, UniProt P68431 2-19, looked up)
peptide: ARTK(Me3)QTARKSTGGKAPRK
notes: histone H3 N-terminal tail, residues 1-18; source: synthetic peptide (GenScript)
- binding result [1]: binds

B4: H3K4me2 (1–18) peptide (peptide, UniProt P68431 2-19, looked up)
peptide: ARTK(Me2)QTARKSTGGKAPRK
notes: as for B3
- binding result [1]: binds

Other lines, results leading:

- binding result (Avitag-PHD1): binds
B1: KDM5C (295–314) peptide (peptide)
peptide: Ac-KEELSHSPEPCTKMTMRLRR-NH2
notes: KDM5C, human, ARID-PHD1 linker, residues 295-314; source: synthetic peptide (GenScript)

- binding result [1]: binds
B5: H3K4me1 (1–18) peptide (peptide, UniProt P68431 2-19, looked up)
peptide: ARTK(Me)QTARKSTGGKAPRK
notes: as for B3
